Results published in paper PMC6709600 (Nature, 2019).

How the values were obtained:
crystal structure = target: the molecule itself; experiment: crystal structure
cryo-EM structure = target: the molecule itself; experiment: cryo-EM structure

Protein | binding result (crystal structure) | binding result (cryo-EM structure)
mGlu5 ECD (residues 21-569 of wild-type human metabotropic glutamate receptor subtype 5) (domain or fragment) QSSERRVVAHMPGDIIIGALFSVHHQPTVDKVHERKCGAVREQYGIQRVEAMLHTLERINSDPTLLPNITLGCEIRDSCWHSAVALEQSIEFIRDSLISSEEEEGLVRCVDGSSSSFRSKKPIVGVIGPGSSSVAIQVQNLLQLFNIPQIAYSATSMDLSDKTLFKYFMRVVPSDAQQARAMVDIVKRYNWTYVSAVHTEGNYGESGMEAFKDMSAKEGICIAHSYKIYSNAGEQSFDKLLKKLTSHLPKARVVACFCEGMTVRGLLMAMRRLGLAGEFLLLGSDGWADRYDVTDGYQREAVGGITIKLQSPDVKWFDDYYLKLRPETNHRNPWFQEFWQHRFQCRLEGFPQENSKYNKTCNSSLTLKTHHVQDSKMGFVINAIYSMAYGLHNMQMSLCPGYAGLCDAMKPIDGRKLLESLMKTNFTGVSGDTILFDENGDSPGRYEIMNFKEMGKDYFDYINVGSWDNGELKMDDDEVWSKKSNIIRSVCSEPCEKGQIKVIRKGEVSCCWTCTPCKENEYVFDEYTCKACQLGSWPTDDLTGCDLIP | binds | 
full-length mGlu5, HA-FLAG-human mGlu5 (21-865) with a C-terminal hexahistidine tag (receptor) QSSERRVVAHMPGDIIIGALFSVHHQPTVDKVHERKCGAVREQYGIQRVEAMLHTLERINSDPTLLPNITLGCEIRDSCWHSAVALEQSIEFIRDSLISSEEEEGLVRCVDGSSSSFRSKKPIVGVIGPGSSSVAIQVQNLLQLFNIPQIAYSATSMDLSDKTLFKYFMRVVPSDAQQARAMVDIVKRYNWTYVSAVHTEGNYGESGMEAFKDMSAKEGICIAHSYKIYSNAGEQSFDKLLKKLTSHLPKARVVACFCEGMTVRGLLMAMRRLGLAGEFLLLGSDGWADRYDVTDGYQREAVGGITIKLQSPDVKWFDDYYLKLRPETNHRNPWFQEFWQHRFQCRLEGFPQENSKYNKTCNSSLTLKTHHVQDSKMGFVINAIYSMAYGLHNMQMSLCPGYAGLCDAMKPIDGRKLLESLMKTNFTGVSGDTILFDENGDSPGRYEIMNFKEMGKDYFDYINVGSWDNGELKMDDDEVWSKKSNIIRSVCSEPCEKGQIKVIRKGEVSCCWTCTPCKENEYVFDEYTCKACQLGSWPTDDLTGCDLIPVQYLRWGDPEPIAAVVFACLGLLATLFVTVVFIIYRDTPVVKSSSRELCYIILAGICLGYLCTFCLIAKPKQIYCYLQRIGIGLSPAMSYSALVTKTNRIARILAGSKKKICTKKPRFMSACAQLVIAFILICIQLGIIVALFIMEPPDIMHDYPSIREVYLICNTTNLGVVTPLGYNGLLILSCTFYAFKTRNVPANFNEAKYIAFTMYTTCIIWLAFVPIYFGSNYKIITMCFSVSLSATVALGCMFVPKVYIILAKPERNVRSAFTTSTVVRMHVGDGKSSSAASRSSSLVNL |  | binds
